{"source": "patent US20050064507", "key": {"[1]": {"tested_on": "T1, AF15q14 peptide GFLNEPLSSKSQRRKSLKLK (SEQ ID NO:132)", "T1 sequence": "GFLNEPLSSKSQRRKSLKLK"}, "[2]": {"tested_on": "T2, ANK1 peptide AQIVKRASLKRGKQ (SEQ ID NO:90)", "T2 sequence": "AQIVKRASLKRGKQ"}, "[3]": {"tested_on": "T3, ARHGAP6 peptide SAQITIPKDGQKRKKSLRKK (SEQ ID NO:156)", "T3 sequence": "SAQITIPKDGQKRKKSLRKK"}, "[4]": {"tested_on": "T4, CACNA1C peptide RGFLRSASLGRRASFHLE (SEQ ID NO:96)", "T4 sequence": "RGFLRSASLGRRASFHLE"}, "[5]": {"tested_on": "T5, DGKI peptide NRKKKRTSFKRKA (SEQ ID NO:79)", "T5 sequence": "NRKKKRTSFKRKA"}, "[6]": {"tested_on": "T6, GABA A receptor beta 2 peptide ERHVAQKKSRLRRRASQLKI (SEQ ID NO:142)", "T6 sequence": "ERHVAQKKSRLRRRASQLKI"}, "[7]": {"tested_on": "T7, MAP3K14 peptide WKGKRRSKARKKRK (SEQ ID NO:100)", "T7 sequence": "WKGKRRSKARKKRK"}, "[8]": {"tested_on": "T8, MARCKS peptide KKRFSFKKSFKLSGFSFKKN (SEQ ID NO:119)", "T8 sequence": "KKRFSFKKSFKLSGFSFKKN"}, "[9]": {"tested_on": "T9, MARCKS peptide KKRFSFKKSFKLSGFSFKKN (SEQ ID NO:123)", "T9 sequence": "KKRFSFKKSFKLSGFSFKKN"}, "[10]": {"tested_on": "T10, MYBPC3 peptide LLKKRDSFRTPRDSKLE (SEQ ID NO:103)", "T10 sequence": "LLKKRDSFRTPRDSKLE"}, "[11]": {"tested_on": "T11, NF1 peptide SQVQKQRSAGSFKRNSIKKI (SEQ ID NO:127)", "T11 sequence": "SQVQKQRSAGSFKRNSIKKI"}, "[12]": {"tested_on": "T12, PKD1 peptide RVVQSVKHTKRKSSTVMK (SEQ ID NO:149)", "T12 sequence": "RVVQSVKHTKRKSSTVMK"}, "[13]": {"tested_on": "T13, PLD1 peptide KYKAFIRIPIPTRRHTFRRQ (SEQ ID NO:161)", "T13 sequence": "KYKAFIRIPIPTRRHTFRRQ"}, "[14]": {"tested_on": "T14, PLEK peptide KFARKSTRRSIRLPE (SEQ ID NO:78)", "T14 sequence": "KFARKSTRRSIRLPE"}, "[15]": {"tested_on": "T15, beta adducin peptide KKKFRTPSFLKKSKK (SEQ ID NO:135)", "T15 sequence": "KKKFRTPSFLKKSKK"}, "[16]": {"tested_on": "T16, cytohesin-2 peptide VDPFYEMLAARKKRISVKKK (SEQ ID NO:150)", "T16 sequence": "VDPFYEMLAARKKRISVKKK"}, "[17]": {"tested_on": "T17, dag kinase iota peptide NRKKKRTSFKRKA (SEQ ID NO:115)", "T17 sequence": "NRKKKRTSFKRKA"}, "[18]": {"tested_on": "T18, dag kinase iota peptide NRKKKRTSFKRKA (SEQ ID NO:117)", "T18 sequence": "NRKKKRTSFKRKA"}, "[19]": {"tested_on": "T19, dag kinase zeta peptide RPQNTLKASKKKKRASFKRK (SEQ ID NO:118)", "T19 sequence": "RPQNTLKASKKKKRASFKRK"}, "[20]": {"tested_on": "T20, gravin peptide KKFFTQGWAGWRKKTSFRKP (SEQ ID NO:154)", "T20 sequence": "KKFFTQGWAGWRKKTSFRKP"}, "[21]": {"tested_on": "T21, p164-RhoGEF peptide PRLIRRGSKKRPAR (SEQ ID NO:124)", "T21 sequence": "PRLIRRGSKKRPAR"}, "[22]": {"tested_on": "T22, p164-RhoGEF peptide PRLIRRGSKKRPAR (SEQ ID NO:82)", "T22 sequence": "PRLIRRGSKKRPAR"}, "[23]": {"tested_on": "T23, peptide AGSFKRNSIKKIV (SEQ ID NO:19)", "T23 sequence": "XXPPGAGSFKRNSIKKIV"}, "[24]": {"tested_on": "T24, peptide AKNLKTLQKRDSFIG (SEQ ID NO:53)", "T24 sequence": "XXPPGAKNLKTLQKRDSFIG"}, "[25]": {"tested_on": "T25, peptide EEAEHKATKARLADK (SEQ ID NO:75)", "T25 sequence": "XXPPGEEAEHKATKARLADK"}, "[26]": {"tested_on": "T26, peptide EKIKRSSLKKVDSLKK (SEQ ID NO:24)", "T26 sequence": "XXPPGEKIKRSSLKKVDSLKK"}, "[27]": {"tested_on": "T27, peptide GFAKKIGSGQKTWTF (SEQ ID NO:66)", "T27 sequence": "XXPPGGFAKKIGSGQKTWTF"}, "[28]": {"tested_on": "T28, peptide KATTKKRTLRKNDRK (SEQ ID NO:32)", "T28 sequence": "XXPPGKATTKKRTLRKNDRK"}, "[29]": {"tested_on": "T29, peptide KFARKSTRRSIRLPE (SEQ ID NO:4)", "T29 sequence": "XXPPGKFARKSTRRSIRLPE"}, "[30]": {"tested_on": "T30, peptide KKKFRTPSFLKKSKK (SEQ ID NO:11)", "T30 sequence": "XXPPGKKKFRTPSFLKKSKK"}, "[31]": {"tested_on": "T31, peptide KKKKKRFSFKKSFKL (SEQ ID NO:12)", "T31 sequence": "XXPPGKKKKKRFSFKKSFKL"}, "[32]": {"tested_on": "T32, peptide KKKKRASFKRKSSKKG (SEQ ID NO:2)", "T32 sequence": "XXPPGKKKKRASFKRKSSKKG"}, "[33]": {"tested_on": "T33, peptide NMEAKKLSKDRMKKY (SEQ ID NO:40)", "T33 sequence": "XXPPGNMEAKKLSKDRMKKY"}, "[34]": {"tested_on": "T34, peptide PVNKRSKYTMMK (SEQ ID NO:59)", "T34 sequence": "XXPPGPVNKRSKYTMMK"}, "[35]": {"tested_on": "T35, peptide QKKSRLRRRASQLKI (SEQ ID NO:9)", "T35 sequence": "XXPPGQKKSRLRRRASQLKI"}, "[36]": {"tested_on": "T36, peptide QPEGLRSLKKPDRKKR (SEQ ID NO:42)", "T36 sequence": "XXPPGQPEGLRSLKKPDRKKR"}, "[37]": {"tested_on": "T37, pkc-zeta peptide GLPAPGEDKSIYRRGSRRWR (SEQ ID NO:167)", "T37 sequence": "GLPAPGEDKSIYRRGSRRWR"}, "[38]": {"tested_on": "T38, ribosomal protein S6 peptide AKRRRLSSLRASTSK (SEQ ID NO:120)", "T38 sequence": "AKRRRLSSLRASTSK"}, "[39]": {"tested_on": "T39, slp4 peptide TYLLPDKSRQGKRKTSIKRD (SEQ ID NO:153)", "T39 sequence": "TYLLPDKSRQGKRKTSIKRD"}, "[40]": {"tested_on": "T40, titin peptide PFEVVWYKDKRQLRSSKKYK (SEQ ID NO:160)", "T40 sequence": "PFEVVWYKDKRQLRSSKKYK"}}}
{"substance": "PKC-delta", "values": [{"measurement": "in vitro phosphorylation, 1 uM peptide (% of best substrate)", "setting": "[1]", "result": 41}, {"measurement": "in vitro phosphorylation, 10 uM peptide (% of best substrate)", "setting": "[1]", "result": 47}, {"measurement": "in vitro phosphorylation (% of best substrate)", "setting": "[2]", "result": 32}, {"measurement": "in vitro phosphorylation, 1 uM peptide (% of best substrate)", "setting": "[3]", "result": 29}, {"measurement": "in vitro phosphorylation, 10 uM peptide (% of best substrate)", "setting": "[3]", "result": 31}, {"measurement": "in vitro phosphorylation (% of best substrate)", "setting": "[4]", "result": 18}, {"measurement": "in vitro phosphorylation (% of best substrate)", "setting": "[5]", "result": 66}, {"measurement": "in vitro phosphorylation, 1 uM peptide (% of best substrate)", "setting": "[6]", "result": 30}, {"measurement": "in vitro phosphorylation, 10 uM peptide (% of best substrate)", "setting": "[6]", "result": 36}, {"measurement": "in vitro phosphorylation (% of best substrate)", "setting": "[7]", "result": 22}, {"measurement": "in vitro phosphorylation, 1 uM peptide (% of best substrate)", "setting": "[8]", "result": 42}, {"measurement": "in vitro phosphorylation, 10 uM peptide (% of best substrate)", "setting": "[8]", "result": 16}, {"measurement": "in vitro phosphorylation, 1 uM peptide (% of best substrate)", "setting": "[9]", "result": 45}, {"measurement": "in vitro phosphorylation, 10 uM peptide (% of best substrate)", "setting": "[9]", "result": 22}, {"measurement": "in vitro phosphorylation (% of best substrate)", "setting": "[10]", "result": 12}, {"measurement": "in vitro phosphorylation, 1 uM peptide (% of best substrate)", "setting": "[11]", "result": 52}, {"measurement": "in vitro phosphorylation, 10 uM peptide (% of best substrate)", "setting": "[11]", "result": 33}, {"measurement": "in vitro phosphorylation, 1 uM peptide (% of best substrate)", "setting": "[12]", "result": 20}, {"measurement": "in vitro phosphorylation, 10 uM peptide (% of best substrate)", "setting": "[12]", "result": 17}, {"measurement": "in vitro phosphorylation, 1 uM peptide (% of best substrate)", "setting": "[13]", "result": 22}, {"measurement": "in vitro phosphorylation, 10 uM peptide (% of best substrate)", "setting": "[13]", "result": 14}, {"measurement": "in vitro phosphorylation (% of best substrate)", "setting": "[14]", "result": 52}, {"measurement": "in vitro phosphorylation, 1 uM peptide (% of best substrate)", "setting": "[15]", "result": 40}, {"measurement": "in vitro phosphorylation, 10 uM peptide (% of best substrate)", "setting": "[15]", "result": 25}, {"measurement": "in vitro phosphorylation, 1 uM peptide (% of best substrate)", "setting": "[16]", "result": 34}, {"measurement": "in vitro phosphorylation, 10 uM peptide (% of best substrate)", "setting": "[16]", "result": 20}, {"measurement": "in vitro phosphorylation, 1 uM peptide (% of best substrate)", "setting": "[17]", "result": 94}, {"measurement": "in vitro phosphorylation, 10 uM peptide (% of best substrate)", "setting": "[17]", "result": 99}, {"measurement": "in vitro phosphorylation, 1 uM peptide (% of best substrate)", "setting": "[18]", "result": 100}, {"measurement": "in vitro phosphorylation, 10 uM peptide (% of best substrate)", "setting": "[18]", "result": 79}, {"measurement": "in vitro phosphorylation, 1 uM peptide (% of best substrate)", "setting": "[19]", "result": 73}, {"measurement": "in vitro phosphorylation, 10 uM peptide (% of best substrate)", "setting": "[19]", "result": 60}, {"measurement": "in vitro phosphorylation, 1 uM peptide (% of best substrate)", "setting": "[20]", "result": 26}, {"measurement": "in vitro phosphorylation, 10 uM peptide (% of best substrate)", "setting": "[20]", "result": 14}, {"measurement": "in vitro phosphorylation, 1 uM peptide (% of best substrate)", "setting": "[21]", "result": 69}, {"measurement": "in vitro phosphorylation, 10 uM peptide (% of best substrate)", "setting": "[21]", "result": 43}, {"measurement": "in vitro phosphorylation (% of best substrate)", "setting": "[22]", "result": 40}, {"measurement": "in vitro phosphorylation (% of best substrate)", "setting": "[23]", "result": 14}, {"measurement": "in vitro phosphorylation (% of best substrate)", "setting": "[24]", "result": 2}, {"measurement": "in vitro phosphorylation (% of best substrate)", "setting": "[25]", "result": 0}, {"measurement": "in vitro phosphorylation (% of best substrate)", "setting": "[26]", "result": 10}, {"measurement": "in vitro phosphorylation (% of best substrate)", "setting": "[27]", "result": 1}, {"measurement": "in vitro phosphorylation (% of best substrate)", "setting": "[28]", "result": "> 5"}, {"measurement": "in vitro phosphorylation (% of best substrate)", "setting": "[29]", "result": 52}, {"measurement": "in vitro phosphorylation (% of best substrate)", "setting": "[30]", "result": 25}, {"measurement": "in vitro phosphorylation (% of best substrate)", "setting": "[31]", "result": 24}, {"measurement": "in vitro phosphorylation (% of best substrate)", "setting": "[32]", "result": 76}, {"measurement": "in vitro phosphorylation (% of best substrate)", "setting": "[33]", "result": 3}, {"measurement": "in vitro phosphorylation (% of best substrate)", "setting": "[34]", "result": 1}, {"measurement": "in vitro phosphorylation (% of best substrate)", "setting": "[35]", "result": 34}, {"measurement": "in vitro phosphorylation (% of best substrate)", "setting": "[36]", "result": 3}, {"measurement": "in vitro phosphorylation, 1 uM peptide (% of best substrate)", "setting": "[37]", "result": 13}, {"measurement": "in vitro phosphorylation, 10 uM peptide (% of best substrate)", "setting": "[37]", "result": 24}, {"measurement": "in vitro phosphorylation, 1 uM peptide (% of best substrate)", "setting": "[38]", "result": 64}, {"measurement": "in vitro phosphorylation, 10 uM peptide (% of best substrate)", "setting": "[38]", "result": 32}, {"measurement": "in vitro phosphorylation, 1 uM peptide (% of best substrate)", "setting": "[39]", "result": 32}, {"measurement": "in vitro phosphorylation, 10 uM peptide (% of best substrate)", "setting": "[39]", "result": 26}, {"measurement": "in vitro phosphorylation, 1 uM peptide (% of best substrate)", "setting": "[40]", "result": 25}, {"measurement": "in vitro phosphorylation, 10 uM peptide (% of best substrate)", "setting": "[40]", "result": 31}]}
